# Results: patent US20100048604A1, “Ligands for Aldoketoreductases” (priority 2004, published 2010)
# T1: Thermoanaerobium brockii alcohol dehydrogenase (TBAD) (Thermoanaerobacter brockii, UniProt P14941)
# T1 construct: purchased Sigma (St. Louis, Mo.) Lot Number 033K4093 (catalogue number not given)
# T1 sequence (P14941 1-352): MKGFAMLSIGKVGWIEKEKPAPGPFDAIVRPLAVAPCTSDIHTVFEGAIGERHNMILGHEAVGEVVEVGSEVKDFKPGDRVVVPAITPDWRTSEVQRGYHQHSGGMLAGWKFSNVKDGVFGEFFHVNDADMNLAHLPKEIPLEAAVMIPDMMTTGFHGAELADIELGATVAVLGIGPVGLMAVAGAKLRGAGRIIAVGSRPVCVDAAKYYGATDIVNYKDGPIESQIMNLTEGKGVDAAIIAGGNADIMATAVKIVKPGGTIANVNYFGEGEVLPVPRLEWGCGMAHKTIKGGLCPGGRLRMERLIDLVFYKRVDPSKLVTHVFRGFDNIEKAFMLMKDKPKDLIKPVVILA
# Experiments:
# AKR1C1-AKR1C4 = test: Substrate tolerance and selectivity across the four human AKR1C isozymes; type: biochemical; conditions: AKR1C1-AKR1C4, purified enzymes, NADPH
# Excerpt: (§1) AKR1C2 and AKR1C3 Selective Probes: Probes (5a-5i) were examined as substrates for the four purified human HSD isozymes (AKR1C1-AKR1C4) under standard assay conditions [catalytic quantities of enzyme, an excess of cofactor (NADPH)]. The initial reaction rates were used to derive standard kinetic parameters (kcat and Km, Materials and Methods).
# (§2) Substrate tolerance of AKR1Cs: Isozyme Activity with 5a-5i: Activity of the second generation of fluorogenic substrates with the AKR1C isozymes was determined as follows. To a STARNA semi-micro fluorimeter cell (with 4 polished windows) was added 100 μL of 1 M potassium phosphate buffer (pH 6), 840 μL doubly deionized water, and 20 μL of 12.5 mM NADPH. After mixing the aqueous components thoroughly, 20 μL of acetonitrile was added as a cosolvent and mixed well. 20 μL of 2.5 mM second generation fluorogenic ketone in acetonitrile (5a-5i) was then added and mixed. 4 μL of undiluted AKR1C (provided generously by the Penning lab at concentrations of 2.5 mg/mL) were then added to the cuvette for a total of 10 μg purified enzyme in the 1 mL assay volume. Fluorescence arising from the respective alcohol reduction product was then monitored over the course of 5-10 minutes.
# Binding constant and catalytic rates (Km and kcat) of the second generation of fluorogenic substrates was determined as follows. To a STARNA semi-micro fluorometer cell (with 4 polished windows) was added 100 μL of 1 M potassium phosphate buffer (pH 6), 840 μL doubly deionized water, and 20 AL of 12.5 mM NADPH. After mixing the aqueous components thoroughly, 20 μL of acetonitrile was added as a cosolvent and mixed well. […] Fluorescence arising from the respective alcohol reduction product was then monitored over the course of 3 minutes (Excitation and emission band pass slits both at 4 nm, lamp 700 V, λexc 410 nm, λem 510). The rate of product formation, expressed in units of nanomoles per minute, were calculated according to previously published procedures (Wierzchowski, J.; Dafeldecker, W. P.; Holmquist, B.; Vallee, B. L. Anal. Biochem. 1989, 178, 57-62): […]
# [1] = target: T2, horse liver alcohol dehydrogenase (HLAD) (Equus caballus, UniProt P00327); test: Enzymatic screening of probes 1-7 against a panel of oxidoreductases; type: biochemical; conditions: 12 hour incubation, 30-50 μM substrate, pH 7, 250 μM NAD(P)H
# T2 construct: purchased Sigma (St. Louis, Mo.) Lot Number 51K7520 (catalogue number not given)
# Procedure: (§3) FIG. 4. Screening of probes 1-7 against a panel of oxidoreductases Percentage fluorescence increase after 12 hour incubation of 30-50 μM substrate, 100 mM phosphate buffer (pH 7), 250 μM NAD(P)H, and 100 nM enzyme. Substrates 1, 2, 3, and 4 monitored at λexc=340 nm, λem=440 nm. Substrates 5, 6, and 7 monitored at λexc=440 nm, λem=510 nm. 3HSD, 3α-hydroxysteroid dehydrogenase (PT, Pseudomonas testosteroni), HLAD, horse liver alcohol dehydrogenase, TBAD, Thermoanaerobium brockii alcohol dehydrogenase, BS 12HSD, Bacillus sp. 12α-hydroxysteroid dehydrogenase, ABAD, amyloid-β binding alcohol dehydrogenase (human), GDH, glycerol dehydrogenase, YADH, yeast alcohol dehydrogenase, LDH, lactate dehydrogenase.
# (§4) Probes 1-7 (see FIG. 3) were subsequently tested against a collection of dehydrogenases in the presence of NAD(P)H; the extent of reduction was assessed by the measurement of fluorescence intensity at the emission maximum of each probe (FIG. 4). This assay included enzymes from two major oxidoreductase superfamilies, the short chain alcohol dehydrogenases (SDR) and the aldo-keto reductases (AKR), ranging from bacterial to mammalian and human enzymes.
# (§5) Horse Liver alcohol dehydrogenase (Lot Number 51K7520), Thermoanaerobium brockii NADP^+ dependent alcohol dehydrogenase (Lot Number 033K4093), Pseudomonas testosteroni 3α-hydroxysteroid dehydrogenase (Lot Number 053K8624), and Bacillus sphaericus 12α-hydroxysteroid dehydrogenase (Lot Number 70K16621) were purchased from Sigma (St. Louis, Mo.). Yeast alcohol dehydrogenase (Lot Number 93122920), glycerol dehydrogenase (Lot Number 92110122), (D)-lactate dehydrogenase (Lot Number 92419236), (L)-lactate dehydrogenase (Lot Number 92801821), NAD^+, NADP^+, NADH, and NADPH were purchased from Roche. Enzyme activity was confirmed by compliance to supplier's quality control assays prior to usage. Rat and human 3α-hydroxysteroid dehydrogenases were provided by Professor Trevor Penning (University of Pennsylvania School of Medicine) and human amyloid-β peptide binding alcohol dehydrogenase was supplied by Professor Shi Du Yan (Columbia University School for Physicians and Surgeons).
# (§6) Enzymatic assays were performed in triplicate on selected fluorogenic substrates according to the following protocol. To each well of a FALCON 96-well black flat bottom plate was added (1) 40 μL of 500 mM potassium phosphate buffer pH 7.0, (2) 113 μL of double deionized water, (3) 25 μL of 2 mM NADH (except for Pseudomonas testosteroni 3α-hydroxysteroid dehydrogenase, rat 3α-hydroxysteroid dehydrogenase, and Thermoanaerobium brockii NADP^+ dependent alcohol dehydrogenase, in which cases 2 mM of NADPH was used), (4) 2 μL of a 3-5 mM solution of substrate in DMSO, and (5) 20 μL of a 40-50 μg/mL solution of enzyme. Reaction volumes were mixed thoroughly after addition of cofactor, substrate, and enzyme and allowed to react 12 hours at 25° C. Scanning of the 96-well plate was performed by the MicroMax 384 connected to a Jobin Yvon Fluorolog through F-3000 fiber optic cables.
# (§7) Initial Screening with Fluorogenic Substrates: Screening of the first fluorogenic substrates for enzymatic activity has been described above. In short, 200 μL enzymatic assay volumes containing 100 mM potassium phosphate buffer (pH 7), 250 μM NAD(P)H cofactor, and 30-50 μM of ketones (1-7) were incubated for 12 hours on a black FALCON 96-well plate. Formation of the alcohol reduction product was determined by reading the fluorescence arising from excitation at the corresponding alcohol at either 340 nm (27-30) or 440 nm (31-33).
# [2] = target: T1, Thermoanaerobium brockii alcohol dehydrogenase (TBAD); test: as above; type: biochemical; conditions: 12 hour incubation, 30-50 μM substrate, pH 7, 250 μM NAD(P)H
# Procedure: as §3, §4, §5, §6, §7
# [3] = substrate: CC(=O)c1cc(=O)oc2c3c4c(cc12)CCCN4CCC3; test: Steady state kinetic parameters of fluorogenic substrates with purified AKR1C isozymes; type: biochemical, human; conditions: other: isozyme 1C1, potassium phosphate buffer pH 6, NADPH, fluorimetric
# Excerpt: as §1, §2
# (§8) Binding constant and catalytic rates (Km and kcat) of the second generation of fluorogenic substrates was determined as follows. To a STARNA semi-micro fluorometer cell (with 4 polished windows) was added 100 μL of 1 M potassium phosphate buffer (pH 6), 840 μL doubly deionized water, and 20 AL of 12.5 mM NADPH. After mixing the aqueous components thoroughly, 20 μL of acetonitrile was added as a cosolvent and mixed well. 20 μL of the second generation fluorogenic ketone (5a-5i) was then added and mixed to achieve assay concentrations of 5Km to Km/5. To initiate the reduction, 2 or 4 μL of diluted AKR1C (1:2 to 1:100, depending on the kinetics of a particular isozyme's reduction of a substrate) was then added to the cuvette. Fluorescence arising from the respective alcohol reduction product was then monitored over the course of 3 minutes (Excitation and emission band pass slits both at 4 nm, lamp 700 V, λexc 410 nm, λem 510). The rate of product formation, expressed in units of nanomoles per minute, were calculated according to previously published procedures (Wierzchowski, J.; Dafeldecker, W. P.; Holmquist, B.; Vallee, B. L. Anal. Biochem. 1989, 178, 57-62):
# (§9) initial rate=[nst×(Ft−F0)/(Fst)]/t (1)
# (§10) where Ft and F0 represent the fluorescence at times t and 0 minutes, nst is the nanomoles of product in a known concentration of product, and Fst is the fluorescence resulting from nst of product. Kinetic parameters were approximated by GraFit (Erithacus Software, Surrey, UK) nonlinear regression analysis program to fit the untransformed data to a hyperbolic function as originally described (Wierzchowski, J.; Dafeldecker, W. P.; Holmquist, B.; Vallee, B. L. Anal. Biochem. 1989, 178, 57-62). Reported enzymatic kinetic parameters are the average of three independent determinations from three different preparations of substrate and enzyme.
# [4] = substrate: O=C(c1ccccc1)c1cc(=O)oc2c3c4c(cc12)CCCN4CCC3; test: as above; type: biochemical, human; conditions: other: isozyme 1C1, potassium phosphate buffer pH 6, NADPH, fluorimetric
# Excerpt: as §1, §2, §8, §9, §10
# [5] = substrate: CC(=O)c1cc(=O)oc2cc(N(C)C)ccc12; test: as above; type: biochemical, human; conditions: other: isozyme 1C1, potassium phosphate buffer pH 6, NADPH, fluorimetric
# Excerpt: as §1, §2, §8, §9, §10
# [6] = substrate: O=C1CCc2c1c1cc3c4c(c1oc2=O)CCCN4CCC3; test: as above; type: biochemical, human; conditions: other: isozyme 1C1, potassium phosphate buffer pH 6, NADPH, fluorimetric
# Excerpt: as §1, §2, §8, §9, §10
# [7] = substrate: CC(=O)c1cc(=O)oc2c3c(ccc12)NCCC3; test: as above; type: biochemical, human; conditions: other: isozyme 1C1, potassium phosphate buffer pH 6, NADPH, fluorimetric
# Excerpt: as §1, §2, §8, §9, §10
# T2 sequence (P00327 2-375 limits assumed): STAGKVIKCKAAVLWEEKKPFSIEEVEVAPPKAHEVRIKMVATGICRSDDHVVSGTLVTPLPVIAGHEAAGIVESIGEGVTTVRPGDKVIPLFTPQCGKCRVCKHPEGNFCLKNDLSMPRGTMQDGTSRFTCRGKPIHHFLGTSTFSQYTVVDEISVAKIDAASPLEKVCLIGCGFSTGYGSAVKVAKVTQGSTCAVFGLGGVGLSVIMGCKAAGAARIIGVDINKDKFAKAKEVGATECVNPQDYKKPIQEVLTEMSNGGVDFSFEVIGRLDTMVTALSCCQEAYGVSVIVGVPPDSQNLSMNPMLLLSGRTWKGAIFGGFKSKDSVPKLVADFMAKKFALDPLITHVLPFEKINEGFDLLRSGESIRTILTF
molecule,measurement,setting,value
"CC(=O)c1c(Br)c(=O)oc2c3c4c(cc12)CCCN4CCC3 [5e, 8-Acetyl-9-bromo-2,3,5,6-tetrahydro-1H,4H-11-oxa-3a-aza-benzo[de]anthracen-10-one]",acceptance as substrate by the four human isozymes,AKR1C1-AKR1C4,not accepted as substrates by any of the tested 3a-HSD enzymes
"CC(=O)c1c(-c2ccccc2)c(=O)oc2c3c4c(cc12)CCCN4CCC3 [5f, 8-Acetyl-9-phenyl-2,3,5,6-tetrahydro-1H,4H-11-oxa-3a-aza-benzo[de]anthracen-10-one]",acceptance as substrate by the four human isozymes,AKR1C1-AKR1C4,not accepted as substrates by any of the tested 3a-HSD enzymes
"COc1ccc2cc(C#CC(C)=O)c(=O)oc2c1 [compound 4, 7-Methoxy-3-(3-oxo-but-1-ynyl)-coumarin]",reduction of probe (fluorescence increase),[1],catalyzed reduction
same,reduction of probe (fluorescence increase),[2],catalyzed reduction
"CC(=O)C#Cc1cc2cc3c4c(c2oc1=O)CCCN4CCC3 [compound 7, 9-(3-Oxo-but-1-ynyl)-2,3,5,6-tetrahydro-1H,4H-11-oxa-3a-aza-benzo[de]anthracen-10-one]",reduction of probe (fluorescence increase),[1],catalyzed reduction
same,reduction of probe (fluorescence increase),[2],catalyzed reduction
"AKR1C1 (Homo sapiens) (protein, gift of the Penning lab (University of Pennsylvania School of Medicine)) MDSKYQCVKLNDGHFMPVLGFGTYAPAEVPKSKALEATKLAIEAGFRHIDSAHLYNNEEQVGLAIRSKIADGSVKREDIFYTSKLWCNSHRPELVRPALERSLKNLQLDYVDLYLIHFPVSVKPGEEVIPKDENGKILFDTVDLCATWEAVEKCKDAGLAKSIGVSNFNRRQLEMILNKPGLKYKPVCNQVECHPYFNQRKLLDFCKSKDIVLVAYSALGSHREEPWVDPNSPVLLEDPVLCALAKKHKRTPALIALRYQLQRGVVVLAKSYNEQRIRQNVQVFEFQLTSEEMKAIDGLNRNVRYLTLDIFAGPPNYPFSDEY",Km,[3],24.4 ± 2.3 7.3 ± 0.4 1.1 ± 0.1 20.6 ± 1.9 μM
same,kcat,[3],0.0183 s⁻¹
same,kcat/Km,[3],0.046 2.1 6.9 0.020 min^−1 μM^−1
same,Km,[4],5.5 ± 0.7 3.0 ± 0.2 0.051 ± 0.005 6.2 ± 0.7 μM
same,kcat,[4],0.025 s⁻¹
same,kcat/Km,[4],0.27 7.8 106 0.10 min^−1 μM^−1
same,Km,[5],21.0 ± 1.3 7.2 ± 0.6 4.3 ± 0.3 14.8 ± 0.9 μM
same,kcat,[5],0.0333 s⁻¹
same,kcat/Km,[5],0.10 3.0 2.1 0.14 min^−1 μM^−1
same,Km,[6],4.0 ± 0.6 4.5 ± 0.6 0.13 μM
same,kcat,[6],1.6 0.40 7.2 no activity
same,kcat/Km,[6],0.39 0.08 56 min^−1 μM^−1
same,Km,[7],35.3 ± 2.9 4.8 ± 0.3 8.3 ± 0.9 40.2 ± 3.4 μM
same,kcat,[7],0.11 s⁻¹
same,kcat/Km,[7],0.19 6.0 0.84 0.036 min^−1 μM^−1
